From the RNAGym collection of RNA variant scans (doi:10.7554/elife.90254) come the findings set out here.

Sequences and labels used below:
B1: LINE1-full (parent)
chain: UACGUAGGUGGUUUUCCCCUGAUAGUGCUAAGGGGGCCUGGAAGUUUGGACUGGGCAGAGCUCAACACAGCGUGGCAAAGUGGCUGUGGCUAGACUGCCUCUCUGGAUUCCUCGUCACUCAGCAGGGCAUCUCUGAGAGAAAUGCC

The variants in the series derive from B1. Description: self-cleavage, relative activity (ratio to wild type); higher = more cleavage; in vitro, sequencing; the parent is a self-cleaving ribozyme.
As for G4U U134A, the self-cleavage came to 1.07.
With G4C A107U the figure was 1.49; with G4C U112A, 0.75.
With C3U U52G the figure was 1.17; with U5A U85A, 0.14; with A6C A31U, 0.
As for U5C A57C, the figure is 0.49; as for A6G U15G, 0.97; as for U5A G36A, 1.19.
For the variant U5C A42G, the self-cleavage stood at 0.75.
As for U5C A42U, the figure is 1.04; as for U5C A50G, 1.01; as for A6C A22G, 0.46.
With U5G A141C the figure was 0.56.
As for G4A U52C, the self-cleavage stood at 0.88.
As for C3U U46C, the figure is 0.92; as for G4A U26A, 0.82; as for U5C A69U, 0.14.
As for A6G U132A, the figure is 1.04; as for A6C U45C, 1.18.
For the variant U5C U13A, the self-cleavage amounted to 1.67.
A6G A79G: the self-cleavage is 0.8.
G4U U81C: the self-cleavage worked out at 0.2.
For the variant U5G A124U, the self-cleavage was 0.96.
For C3U U115C, the self-cleavage came out at 1.03.
As for C3U U115A, the self-cleavage is 0.72.
In the case of A6G A31U, the self-cleavage is 1.01.
As to A6G U134G, the self-cleavage was 0.8.
With G4A A94U the figure was 0.27.
On to U5C U39C, for which the self-cleavage was 1.05.
With U5C U39A the figure was 0.91; with G4A U130C, 1.38.
As for U5C A94G, the figure is 0.46; as for U5C A79G, 1.15; as for U5G U12C, 0.77.
With A6G U102C the figure was 0.68; with A6G C17U, 0.28; with U5C U102C, 1.
Regarding G4A G40A, the self-cleavage was determined as 1.24.
As for G4A A77G, the figure is 1.68.
As for U5A G49A, the figure is 0.5; as for U5A A64C, 0.19.
As for G4A U73A, the figure is 0.97; as for G4A U73C, 1.68; as for C3U U85A, 0.28.
Consider G4C U115C, for which the self-cleavage came to 2.15.
With A6G U112A, the self-cleavage was determined as 0.95.
As for A6G U112C, the self-cleavage was 0.96.
Consider U5C A22G, for which the self-cleavage was 0.57.
Consider G4A G11A, for which the self-cleavage was 0.58.
As for A6G G127A, the figure is 0.46.
As for U5A U132A, the figure is 1.38; as for G4A A24G, 0.75; as for U5C U119A, 0.98.
As for C3U U134C, the figure is 1.05; as for A6G C37A, 0.76; as for C3U G93A, 0.
For U5C U100C, the self-cleavage amounted to 1.52.
Turning to A6G U87C, the self-cleavage was found to be 0.15.
Take U5C C18G: the self-cleavage came out at 0.99.
With A6G G144A the figure was 1.21.
As for U5A C38G, the figure is 0.71.
With A6C U119A, the self-cleavage worked out at 1.36.
With U5C C95G the figure was 0.17; with U5G, 0.76.
As for U5C, the figure is 1.06; as for U5A, 0.95; as for C3U U143G, 0.
With C3U U143A the figure was 0.41; with C3U U62C, 0.15; with U5C U115A, 0.91.
On to U5C U115C, for which the self-cleavage is 1.27.
With G4U A78G the figure was 1.05; with U5A U119C, 0.9; with U5A U119A, 1.05.
As to A6C U96A, the self-cleavage turned out to be 0.17.
As for A6G A22G, the figure is 1.19; as for U5C G105U, 1.32; as for U5C G105A, 1.16.
With A6G G97A the figure was 0.18; with U5C A78U, 1.9.
With A6G A142G, the self-cleavage is 1.01.
For the variant A6G U96A, the self-cleavage worked out at 0.2.
Take A6G U96C: the self-cleavage was 0.41.
Regarding A6G U9A, the self-cleavage turned out to be 0.75.
With A6G A69G, the self-cleavage is 0.32.
As for A6G A69U, the figure is 0.22.
With G4A A43G the figure was 0.67; with G4U U39A, 1.95.
For the variant A6G A64G, the self-cleavage is 0.62.
Take A6G A67G: the self-cleavage is 0.39.
With A6G A67U the figure was 0.68; with G4A U62G, 0; with G4U A30G, 1.11.
For C3U U81C, the self-cleavage came to 0.79.
As to A6G U73C, the self-cleavage was found to be 1.34.
As for U5C A30C, the figure is 0.28; as for U5C A30G, 0.74; as for A6G G106A, 0.66.
As for A6G G106U, the figure is 1.06; as for U5A G106A, 1.14; as for A6G G21U, 0.53.
Regarding U5C U108C, the self-cleavage came to 1.57.
For the variant U5C U108G, the self-cleavage came out at 1.88.
With U5C G74U the figure was 0.38.
With U5C U91C the figure was 0.48; with A6G G32A, 0.68.
As for C3U U109A, the figure is 0.93; as for G4C A79G, 0.29; as for U5C A24G, 0.86.
Consider G4A G21A, for which the self-cleavage turned out to be 0.76.
Regarding A6G U100G, the self-cleavage is 0.95.
With A6G U14A the figure was 0.95; with U5C A142C, 0.98.
With G4A U87G, the self-cleavage was determined as 0.07.
With G4A U87C the figure was 0.1; with U5C U9C, 1.28; with U5C U9A, 0.74.
For A6G G48A, the self-cleavage was 0.22.
For U5A A43G, the self-cleavage was 0.76.
With G4C A124G the figure was 0.48; with U5G A64G, 0.23; with U5A U104C, 1.1.
For the variant A6G A43U, the self-cleavage came to 0.85.
As for A6G U109C, the figure is 0.71; as for A6G A140U, 0.77.
Regarding A6G A140G, the self-cleavage turned out to be 0.69.
As for U5C G82A, the self-cleavage was found to be 1.18.
On to U5C G144A, for which the self-cleavage came to 1.39.
In the case of U5C G36A, the self-cleavage is 0.4.
With A6G U130C the figure was 0.81; with U5C G97A, 0.
For the variant U5C A140G, the self-cleavage stood at 1.12.
As for U5A U39G, the self-cleavage was 0.22.
As for U5C G27A, the figure is 0.17; as for A6G U62G, 0.11.
With A6G U62C the figure was 0.18; with U5A U29A, 1.16; with U5C G25A, 1.34.
As for U5A A140U, the figure is 1.09; as for C3U U14C, 0.81.
C3U U87G: the self-cleavage stood at 0.32.
With G4U A77G the figure was 2.68.
With U5A U73C the figure was 1.41; with U5A U73G, 0.48.
Consider U5A U73A, for which the self-cleavage came to 2.19.
With U5C U81A the figure was 1.56; with U5C U81G, 1.31.
As for A6G G93A, the figure is 0.14.
Take A6G G25U: the self-cleavage was 0.69.
As for A6G G25A, the figure is 0.1.
With A6G C146U the figure was 1.05; with U5A A67G, 0.7.
With A6G C133U the figure was 0.59; with G4A A65G, 0.
G4U A138U: the self-cleavage turned out to be 1.19.
A6G U104A: the self-cleavage is 0.73.
For the variant U5C G114A, the self-cleavage was determined as 0.96.
As for U5C A67U, the figure is 0.47; as for U5C U130C, 1.4.
U5C G53U: the self-cleavage worked out at 0.88.
On to A6G U12G, for which the self-cleavage is 0.85.
For the variant A6G U12C, the self-cleavage came to 0.73.
Consider U5C U20C, for which the self-cleavage was 1.09.
Consider U5C U20A, for which the self-cleavage was found to be 0.84.
Regarding U5C U45A, the self-cleavage was 0.74.
As to U5C U45C, the self-cleavage came out at 1.32.
